Measured values published in patent publication US20120237528A1.

Biological target: Innovin, lyophilized recombinant human tissue factor combined with phospholipids (human) (UniProt P13726)
Assay: cell-based or functional assay

Sequence of Innovin, lyophilized recombinant human tissue factor combined with phospholipids (human) (P13726 33-295 limits assumed): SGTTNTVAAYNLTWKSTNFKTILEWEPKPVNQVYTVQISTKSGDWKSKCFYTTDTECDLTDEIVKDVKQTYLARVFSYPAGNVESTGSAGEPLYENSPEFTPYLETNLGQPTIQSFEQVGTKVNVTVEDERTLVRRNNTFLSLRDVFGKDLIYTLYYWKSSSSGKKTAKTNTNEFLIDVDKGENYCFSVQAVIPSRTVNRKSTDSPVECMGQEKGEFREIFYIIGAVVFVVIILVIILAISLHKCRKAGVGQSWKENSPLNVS

- T½ Max (seconds), coagulation of human plasma: > 900 s
- coagulation time: > 1800 s
Substance: CNTO 860, humanized form of the antibody 5G9, human IgG1/Kappa
